T1: Cellular CD73 on MDA-MB-231 human breast cancer cells (human, UniProt P21589 27-549)
T1 construct: whole, on cells; Endogenous CD73 on MDA-MB-231 cells; also called 5'-nucleotidase; ecto-5'-nucleotidase
T1 sequence (looked up): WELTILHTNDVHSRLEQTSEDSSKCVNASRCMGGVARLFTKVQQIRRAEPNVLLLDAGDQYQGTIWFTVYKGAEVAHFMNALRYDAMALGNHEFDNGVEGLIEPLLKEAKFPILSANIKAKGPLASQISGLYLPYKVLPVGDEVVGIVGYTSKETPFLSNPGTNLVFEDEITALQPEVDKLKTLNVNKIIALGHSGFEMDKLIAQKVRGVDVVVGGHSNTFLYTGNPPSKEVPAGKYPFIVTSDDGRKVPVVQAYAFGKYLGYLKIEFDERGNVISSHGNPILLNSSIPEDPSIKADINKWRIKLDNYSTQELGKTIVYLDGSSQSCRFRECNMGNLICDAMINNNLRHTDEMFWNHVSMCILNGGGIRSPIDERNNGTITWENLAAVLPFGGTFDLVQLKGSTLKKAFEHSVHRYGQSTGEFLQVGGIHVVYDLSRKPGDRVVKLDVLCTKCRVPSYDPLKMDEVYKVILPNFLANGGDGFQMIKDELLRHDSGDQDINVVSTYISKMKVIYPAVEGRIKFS


Biological target: T1, Cellular CD73 on MDA-MB-231 human …
Experiment: flow cytometry on MDA-MB-231 cells, PE anti-human secondary

Row | Binder | binding result
1 | CPX-006 (glycosylated) (antibody, human IgG1, kappa, N297Q, V domains shown, N-linked glycosylation on CDR L1 (NXS motif at Kabat 27A-27C), Humanized anti-CD73 antibody with the CDRs of mouse 1E9; also called BAP094-hum07; glycosylated antibody) VH: QVQLVQSGAEVEKPGASVKVSCKASGYTFTSYWITWVRQAPGQGLEWMGDIYPGSGNTNYNEKFKTRVTITADKSTSTAYMELSSLRSEDTAVYYCAKEGGLTTEDYALDYWGQGTLVTVSS VL: EIVLTQSPATLSLSPGERATLSCRASKNVSTSGYSYMHWYQQKPGQAPRLLIYLASNLESGIPPRFSGSGYGTDFTLTINNIESEDAAYYFCQHSRELPFTFGQGTKVEIKR | binds
2 | CPX-008 (antibody, V domains shown, also called aglycosylated antibody) VH: QVQLVQSGAEVEKPGASVKVSCKASGYTFTSYWITWVRQAPGQGLEWMGDIYPGSGNTNYNEKFKTRVTITADKSTSTAYMELSSLRSEDTAVYYCAKEGGLTTEDYALDYWGQGTLVTV VL: EIVLTQSPATLSLSPGERATLSCRASKQVSTSGYSYMHWYQQKPGQAPRLLIYLASNLESGIPPRFSGSGYGTDFTLTINNIESEDAAYYFCQHSRELPFTFGQGTKVEIK | binds
3 | CPX-014 (antibody, V domains shown, D at Kabat 27A of CDR L1, made in the CPX-006 light chain) VH: QVQLVQSGAEVEKPGASVKVSCKASGYTFTSYWITWVRQAPGQGLEWMGDIYPGSGNTNYNEKFKTRVTITADKSTSTAYMELSSLRSEDTAVYYCAKEGGLTTEDYALDYWGQGTLVTV VL: EIVLTQSPATLSLSPGERATLSCRASKDVSTSGYSYMHWYQQKPGQAPRLLIYLASNLESGIPPRFSGSGYGTDFTLTINNIESEDAAYYFCQHSRELPFTFGQGTKVEIK | binds
4 | CPX-011 (antibody, V domains shown, A at Kabat 27C of CDR L1, made in the CPX-006 light chain) VH: QVQLVQSGAEVEKPGASVKVSCKASGYTFTSYWITWVRQAPGQGLEWMGDIYPGSGNTNYNEKFKTRVTITADKSTSTAYMELSSLRSEDTAVYYCAKEGGLTTEDYALDYWGQGTLVTV VL: EIVLTQSPATLSLSPGERATLSCRASKNVATSGYSYMHWYQQKPGQAPRLLIYLASNLESGIPPRFSGSGYGTDFTLTINNIESEDAAYYFCQHSRELPFTFGQGTKVEIK | binds

More lines, now with the values ahead:

Row | binding result | Binder
5 | binds | CPX-012 (antibody, V domains shown) VH: QVQLVQSGAEVEKPGASVKVSCKASGYTFTSYWITWVRQAPGQGLEWMGDIYPGSGNTNYNEKFKTRVTITADKSTSTAYMELSSLRSEDTAVYYCAKEGGLTTEDYALDYWGQGTLVTV VL: AIQLTQSPSSLSASVGDRVTITCRASKQVSTSGYSYMHWYQQKPGQAPRLLIYLASNLESGVPSRFSGSGSGTDFTFTISSLEAEDAATYYCQHSRELPFTFGQGTKVEIK
6 | binds | CPX-009 (antibody, V domains shown, A at Kabat 27A of CDR L1, made in the CPX-006 light chain) VH: QVQLVQSGAEVEKPGASVKVSCKASGYTFTSYWITWVRQAPGQGLEWMGDIYPGSGNTNYNEKFKTRVTITADKSTSTAYMELSSLRSEDTAVYYCAKEGGLTTEDYALDYWGQGTLVTV VL: EIVLTQSPATLSLSPGERATLSCRASKAVSTSGYSYMHWYQQKPGQAPRLLIYLASNLESGIPPRFSGSGYGTDFTLTINNIESEDAAYYFCQHSRELPFTFGQGTKVEIK
